The values below come from paper PMC2731163, “HoxA-11 and FOXO1A Cooperate to Regulate Decidual Prolactin Expression: Towards Inferring the Core Transcriptional Regulators of Decidual Genes” (PLoS ONE, 2009).

For this assay, the target named is N-terminal Flag tagged human FOXO1A (human, UniProt Q12778 1-655). The assay can be described thus: cell-based or functional assay.

Bounds are passed on as bounds.

N-terminal Flag tagged human FOXO1A, sequence (Q12778 whole entry): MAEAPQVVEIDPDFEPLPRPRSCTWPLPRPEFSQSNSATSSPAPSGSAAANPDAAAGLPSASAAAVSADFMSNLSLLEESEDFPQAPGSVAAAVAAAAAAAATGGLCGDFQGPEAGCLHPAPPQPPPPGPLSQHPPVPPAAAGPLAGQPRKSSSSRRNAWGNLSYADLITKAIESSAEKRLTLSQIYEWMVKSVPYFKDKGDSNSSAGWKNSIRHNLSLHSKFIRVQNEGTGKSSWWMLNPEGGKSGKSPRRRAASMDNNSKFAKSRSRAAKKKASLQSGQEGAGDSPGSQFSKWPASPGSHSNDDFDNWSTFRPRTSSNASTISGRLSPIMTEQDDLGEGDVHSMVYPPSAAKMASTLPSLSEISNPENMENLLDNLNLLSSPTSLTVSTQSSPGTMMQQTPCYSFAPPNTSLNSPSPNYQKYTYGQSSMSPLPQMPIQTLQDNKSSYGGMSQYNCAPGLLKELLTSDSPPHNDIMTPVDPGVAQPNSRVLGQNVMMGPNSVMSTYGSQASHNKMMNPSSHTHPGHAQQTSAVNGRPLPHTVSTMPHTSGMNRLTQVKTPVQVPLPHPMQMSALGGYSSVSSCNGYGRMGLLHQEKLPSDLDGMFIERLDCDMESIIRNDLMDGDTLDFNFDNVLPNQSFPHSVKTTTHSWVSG

B1: HoxA11-V5/His fusion protein (natural protein)
chain: not shown
Consider B1, for which the “luciferase expression from the dPRL-332/luc3 decidual PRL enhancer reporter in HeLa cells cotransfected with HoxA-11 and FOXO1A, fold change relative to empty expression vector” value was more than 3 fold.
